The text below walks through data of US20070286806A1, “Methods and Compositions for Modulating a Steroid Receptor” (Mount Sinai Hospital, priority 2004, published 2007).

Common to all, as to type: cell-based
Test [1] has as its target T1, ERβ (Homo sapiens, UniProt Q92731).
T1 construct: expressed in transfected cells; host or cells: SHM (Syrian hamster myocyte) cells
Description: ERβ transactivation, 3xERE luciferase reporter in SHM cells. Conditions: 3xERE promoter. The procedure:
FIG. 4. PSF inhibit transactivation of PR but not estrogen receptor (ER). (A) SHM cells were transient cotransfected with PRA or PRB expression vectors with or without increasing dose (0.05, 0.1 and 0.2 μg) of His-PSF, together with 3×PRE (upper) or MMTV (lower) luciferase reporter vector. Four hours after transfection, culture medium was replaced with fresh DMEM containing 10 nM progesterone and the incubation continued for at least 30 hours. (B) SHM cells were transiently cotransfected with ERα or ERβ expression vector with (0.2 μg) or without His-PSF, together with 3×ERE luciferase reporter vector. Four hours after transfection, culture medium was replaced with fresh DMEM with (solid bar) or without (empty bar) 10 nM estrodial and incubation continued for at least 30 hours. Luciferase activity was measured and normalized by β-galatosidase activity. […]
For immunoprecipitation of the endogenous PR and PSF, T47D cells cultured in 150 mm dishes were lysed in 800 μl NETN buffer containing 150 mM NaCl plus protease inhibitor cocktail. […] Gels were treated with Enhancer (NEN, Boston, US) dried and analyzed by autoradiography. • Cell culture and transient transfection: SHM cells and 293T cells were maintained in DMEM plus 5% FCS (Sigma) as described before (22). […] Luciferase activity was determined by using the luciferin reagent (Promega) according to manufacture's protocol. […]
Background: Reporter assays use an easily measured gene product as a stand-in for the process of interest.

Test [2] addresses T2, activation domains of PR (Homo sapiens, UniProt P06401).
T2 construct: expressed in transfected cells; host or cells: SHM (Syrian hamster myocyte) cells
T2 sequence (P06401 456-556): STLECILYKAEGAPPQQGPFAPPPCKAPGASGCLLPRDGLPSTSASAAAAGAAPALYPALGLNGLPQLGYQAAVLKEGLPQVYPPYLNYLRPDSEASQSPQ
Put plainly: One-hybrid system: PR activation domains fused to Gal4 DBD, G5-Luc reporter and western blot in SHM cells. The following applies: PR456-556 (AF1 domain). The procedure:
(§1) FIG. 6 A-F. Inhibition of PR activation domains by PSF involves different mechanisms. Segments containing individual activation domains of PR were fused to Gal4 DNA binding domain in pM vector and cotransfected with or without increasing amounts of His-PSF, together with G5 luciferase reporter vector in SHM cells. Progesterone (10 nM) was added to cells transfected with segments containing PR hormone binding domain (HBD). Luciferase activity was measured 30 hours after transfection and normalized to β-galatosidase acitvity. Data shown are the mean of three separate experiments performed in triplicate±S.E. Whole cell lysate from each transfection was western blotted with anti-Gal4 DNA binding domain (DBD) antibody (Santa Cruz) and anti-His tag antibody H-15 (Santa Cruz). Note: the empty vector pSG5 was added to the DNA mixture to ensure that the amounts of SV40 promoter in all the transfection assays are equal.
(§2) For immunoprecipitation of the endogenous PR and PSF, T47D cells cultured in 150 mm dishes were lysed in 800 μl NETN buffer containing 150 mM NaCl plus protease inhibitor cocktail. Cell lysate were then incubated with 5 μg of PR or PSF, or control mouse IgG at 4° C. overnight, followed by the addition of 30 μl of protein A/G PLUS-agarose beads (Santa Cruz) for another two hours at 4° C. Resins were washed with NETN containing 250 mM NaCl and eluted with 1×Laemmli buffer. The eluted proteins along with the whole cell extract were western blotted by PR or PSF antibody. • GST pulldown assay: GST pulldown assay was performed as previously described (20). GST and its fusion proteins were first immobilized to glutathione-Sepharose 4B affinity matrix. The matrix was then incubated at 4° C. overnight with rabbit reticulocyte lysate (Promega) containing PR or His-PSF transcribed and translated in presence of ^35S methionine. The matrix was washed three times with cold NETN buffer before adding 1 ×Laemmli buffer to elute associated proteins. The eluted proteins were separated on 10% SDS-PAGE gel. Gels were treated with Enhancer (NEN, Boston, US) dried and analyzed by autoradiography. • Cell culture and transient transfection: SHM cells and 293T cells were maintained in DMEM plus 5% FCS (Sigma) as described before (22). For experiments involving steroid exposure, the medium was substituted with phenol red free DMEM containing 5% charcoal-treated fetal bovine serum (Hyclone, Utah, USA). Transfection was performed according to manufacturers protocol (Fementas). Cells were seeded at a density to achieve 60-80% confluency the following day. The DNA and transfection reagent were mixed and added to the medium. Cell lysates were collected at least 30 hours after transfection. For luciferase assay, cells were collected in 200 μl of lysis buffer (Promega) of which 10μl was used for the luciferase and β-Gal activity assays respectively. Luciferase activity was determined by using the luciferin reagent (Promega) according to manufacture's protocol. Transfection efficiency was normalized to β-galactosidase activity. For western blots, cell lysates were collected in NETN buffer plus protease inhibitor cocktail. About 30 μg of protein extract was separated on SDS gel electrophoresis followed by western blotting with antibodies of interest. • Electrophoretic Mobility Shift Assay: PRDBD was synthesized in rabbit reticulocyte by using the TNT coupled in vitro transcription-translation system (Promega) with the vector pcDNA3 PRDBD. Full-length PR protein extract was obtained by transiently transfecting 293T cells with Flag-PRB vector. Cells were treated with 10^−8 M progesterone and nuclear fraction was extracted by the NE-PER Nuclear and Cytoplasmic Extraction Reagents Kit (Pierce). The nuclear fraction containing PRs was confirmed by western blot with the PR antibody AB-52 and used in gel shift assay. […]
A general note: A western blot detects proteins with antibodies after separation by electrophoresis.

Test [3] concerns the target T3, activation domains of PR (Homo sapiens, UniProt P06401).
T3 construct: expressed in transfected cells; host or cells: SHM (Syrian hamster myocyte) cells
T3 sequence (P06401 1-164): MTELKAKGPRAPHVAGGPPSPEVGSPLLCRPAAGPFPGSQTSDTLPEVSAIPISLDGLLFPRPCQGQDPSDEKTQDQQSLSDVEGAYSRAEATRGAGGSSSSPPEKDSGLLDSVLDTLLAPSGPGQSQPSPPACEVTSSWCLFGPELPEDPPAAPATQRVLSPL
Described as above. The procedure: as §1, §2

The target in test [4] is T4, activation domains of PR (Homo sapiens, UniProt P06401).
T4 construct: expressed in transfected cells; host or cells: SHM (Syrian hamster myocyte) cells
T4 sequence (P06401 456-650): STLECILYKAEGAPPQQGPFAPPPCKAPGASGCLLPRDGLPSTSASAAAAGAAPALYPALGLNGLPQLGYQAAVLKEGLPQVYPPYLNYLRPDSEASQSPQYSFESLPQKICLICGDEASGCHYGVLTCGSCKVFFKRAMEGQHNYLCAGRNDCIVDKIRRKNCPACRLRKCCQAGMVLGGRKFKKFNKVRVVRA
Described as above. The procedure:
as §1, §2
This is another data set of the same source.

In test [5] the target is T5, activation domains of PR (Homo sapiens, UniProt P06401).
T5 construct: expressed in transfected cells; host or cells: SHM (Syrian hamster myocyte) cells
T5 sequence (P06401 650-933): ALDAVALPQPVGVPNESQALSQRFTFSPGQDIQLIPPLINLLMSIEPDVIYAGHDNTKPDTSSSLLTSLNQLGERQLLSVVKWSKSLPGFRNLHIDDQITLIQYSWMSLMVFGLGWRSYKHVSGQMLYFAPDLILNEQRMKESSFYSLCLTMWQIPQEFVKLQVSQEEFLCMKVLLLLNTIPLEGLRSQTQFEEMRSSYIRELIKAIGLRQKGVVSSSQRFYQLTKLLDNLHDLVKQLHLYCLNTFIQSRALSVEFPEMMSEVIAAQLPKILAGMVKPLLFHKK
The test is described as above. The following applies: PR650-933 (only the AF2 domain). The procedure:
as §1, §2

T1 sequence (Q92731 whole entry, species assumed): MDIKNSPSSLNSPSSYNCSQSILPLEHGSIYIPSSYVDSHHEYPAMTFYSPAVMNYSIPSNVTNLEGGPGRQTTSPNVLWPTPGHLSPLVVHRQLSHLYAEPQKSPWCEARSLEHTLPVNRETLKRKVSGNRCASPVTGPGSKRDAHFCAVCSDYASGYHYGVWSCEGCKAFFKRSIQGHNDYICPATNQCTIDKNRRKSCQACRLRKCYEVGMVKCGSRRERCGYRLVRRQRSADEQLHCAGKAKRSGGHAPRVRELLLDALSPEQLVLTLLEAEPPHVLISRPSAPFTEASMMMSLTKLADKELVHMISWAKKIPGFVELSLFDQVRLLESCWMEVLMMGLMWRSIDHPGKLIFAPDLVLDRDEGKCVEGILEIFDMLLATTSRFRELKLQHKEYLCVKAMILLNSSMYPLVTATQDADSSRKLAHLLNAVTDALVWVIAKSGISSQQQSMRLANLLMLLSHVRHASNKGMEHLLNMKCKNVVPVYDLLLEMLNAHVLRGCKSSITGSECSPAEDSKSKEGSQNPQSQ

B1: polypyrimidine tract binding protein-associated splicing factor (protein)
chain: MSRDRFRSRGGGGGGFHRRGGGGGRGGLHDFRSPPPGMGLNQNRGPMGPGPGQSGPKPPIPPPPPHQQQQQPPPQQPPPQQPPPHQPPPHPQPHQQQQPPPPPQDSSKPVVAQGPGPAPGVGSAPPASSSAPPATPPTSGAPPGSGPGPTPTPPPAVTSAPPGAPPPTPPSSGVPTTPPQAGGPPPPPAAVPGPGPGPKQGPGPGGPKGGKMPGGPKPGGGPGLSTPGGHPKPPHRGGGEPRGGRQHHPPYHQQHHQGPPPGGPGGRSEEKISDSEGFKANLSLLRRPGEKTYTQRCRLFVGNLPADITEDEFKRLFAKYGEPGEVFINKGKGFGFIKLESRALAEIAKAELDDTPMRGRQLRVRFATHAAALSVRNLSPYVSNELLEEAFSQFGPIERAVVIVDDRGRSTGKGIVEFASKPAARKAFERCSEGVFLLTTTPRPVIVEPLEQLDDEDGLPEKLAQKNPMYQKERETPPRFAQHGTFEYEYSQRWKSLDEMEKQQREQVEKNMKDAKDKLESEMEDAYHEHQANLLRQDLMRRQEELRRMEELHNQEMQKRKEMQLRQEEERRRREEEMMIRQREMEEQMRRQREESYSRMGYMDPRERDMRMGGGGAMNMGDPYGSGGQKFPPLGGGGGIGYEANPGVPPATMSGSMMGSDMRTERFGQGGAGPVGGQGPRGMGPGTPAGYGRGREEYEGPNKKPRF
notes: expressed from transfected His-PSF vector or in vitro translated
For the molecule B1, the “inhibitory effects on ERβ” value in test [1] is “not observed”. The “effect on PR456-556” value in test [2] is listed as “no effect”. Moreover, the “luciferase activity of pM PR1-164” value in test [3] (PR1-164 (AF3), increasing amounts of PSF) is “significant dose-dependent reduction in luciferase activity”. In test [3] (PR1-164, western blot), the “pM PR1-164 protein” value is “loss of pM PR1-164 protein”. For the same molecule, the “transactivation of PR456-650” value in test [4] (PR456-650 (AF1 domain and DBD)) was “inhibited transactivation”. In addition, in test [4] (PR456-650, western blot), the “protein of PR456-650” value is given as “enhanced degradation”. Besides, the “effect on PR650-933” value in test [5] is “no effect”.
